The text below walks through data of article PMC12945441 (2022).

The experiment addresses SARS-CoV-2 Wuhan-Hu-1 receptor-binding domain (SARS-CoV-2 Wuhan-Hu-1). Briefly: ELISA.

B1: S2X324 mAb (antibody, V domains shown)
VH: QITLKESGPTLVKPTQTLTLTCTFSGFSVTTSGVGVGWIRQPPGKALEYLALIYWDDDKRYSTSLKSRLTITKDTSKNQVVLTMTNMDPVDTATYYCARHTIPSIFDYWGQGILVTVSS
VL: QPVLTQPASVSGSPGQSITISCTATSSDVGNYNYVSWYQHHPGKAPKLMIYEVSNRPSGVSNRFSGSKSGNTASLTISGLQAEDEADYYCSSYTSSSLLFGGGTKLTVL
Molecule B1 had a 50% inhibitory concentration (IC50) of 0.0267 µg/mL.
